From PMC4243253 come the findings set out here.

This data set concerns N[C@@H](CC(=O)c1ccccc1NC=O)C(=O)O. The experiment in a line: purified protein. To be noted: 0.1 M sodium phosphate, pH 7.4, 20 μM ZnCl2, 25°C.

As usually defined, the Km is the substrate concentration at which the rate is half of its maximum. By Vmax is commonly meant the rate approached at saturating substrate. What is called kcat is the maximal rate divided by the concentration of active sites. For orientation: kcat/Km means the turnover number divided by the Michaelis constant. As to “PaKynB-His (Pseudomonas aeruginosa PAO1)”, the Michaelis constant (Km) amounted to 980 ± 130 µM, the Vmax was found to be 0.148 µmol/min, the kcat is 114 s⁻¹ and the kcat/Km is 116000 M⁻¹ s⁻¹.
